Results on one variant are retold here after IntAct's records for PubMed 22265419.

First the molecules themselves.
B1: WASH complex subunit homolog 3 (Caenorhabditis elegans), O01901 (parent)
chain: MNASSRTKPAIDLNKVPPIDHHRTAVTFNCLIMKMTEMLNNFGNKMEDILEKAEQSLDTADRKLRLMESKLAGMSLEDKSTTATPSSAPEIDEIHESNPSSSQIVEETVEEKPEEHTTTVLIKDDPAYSKYFKMLKLGVLEAGVIQKMKSEGVDPSILKRGDEPSRPQAQTSRNYESSGESTASFSDSD
partner: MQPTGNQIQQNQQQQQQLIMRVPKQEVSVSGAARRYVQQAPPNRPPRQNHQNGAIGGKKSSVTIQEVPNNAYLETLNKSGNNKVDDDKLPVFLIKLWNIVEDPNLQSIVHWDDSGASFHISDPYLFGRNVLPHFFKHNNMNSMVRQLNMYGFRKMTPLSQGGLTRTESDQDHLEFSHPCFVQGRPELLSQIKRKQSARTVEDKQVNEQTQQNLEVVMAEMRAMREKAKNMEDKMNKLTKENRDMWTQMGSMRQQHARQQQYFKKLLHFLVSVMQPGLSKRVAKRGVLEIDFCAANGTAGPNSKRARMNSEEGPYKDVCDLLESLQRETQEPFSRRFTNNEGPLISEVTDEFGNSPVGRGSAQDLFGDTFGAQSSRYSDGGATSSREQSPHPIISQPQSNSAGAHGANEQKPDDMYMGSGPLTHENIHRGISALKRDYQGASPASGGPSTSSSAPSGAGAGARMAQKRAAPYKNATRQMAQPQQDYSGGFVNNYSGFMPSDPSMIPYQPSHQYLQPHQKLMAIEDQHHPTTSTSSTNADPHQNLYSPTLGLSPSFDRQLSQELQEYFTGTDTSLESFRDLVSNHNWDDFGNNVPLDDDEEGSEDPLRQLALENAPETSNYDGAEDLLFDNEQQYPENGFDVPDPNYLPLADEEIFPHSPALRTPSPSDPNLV

Variants of B1 are the subject of this test. As to conditions: with hsf1_caeel hsf-1, G5EFT5.
On to MNASSRTKPAIDLNKVPPIDHHRTAVTFNCLIMKMTEMLNNFGNKMEDILEKAEQSLDTADRKLRLMESKLAGMSLEDKSTTATPSSAPEIDEIHESNPSSSQIVEETVEEKPEEHTTTVLIKDDPAYSKYFKMLKLGVLEAGVIQKMKSEGVDPSILKRGDEPSRPQAQTSRNYESSGESAASFSDSD [T182A], for which the “effect of a mutation on the interaction” value was “increasing interaction”.
